From patent US5472841

Biological target: T1, Human neutrophil elastase (Homo sapiens) (UniProt P08246)
T1 sequence: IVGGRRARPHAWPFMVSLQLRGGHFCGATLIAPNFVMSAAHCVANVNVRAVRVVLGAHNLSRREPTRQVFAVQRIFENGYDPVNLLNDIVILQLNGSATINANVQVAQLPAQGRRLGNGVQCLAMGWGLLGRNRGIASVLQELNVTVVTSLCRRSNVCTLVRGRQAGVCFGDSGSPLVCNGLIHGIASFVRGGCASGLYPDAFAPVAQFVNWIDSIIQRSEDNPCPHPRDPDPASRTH
Experiment: filter
Details: apparent Kd

CCCCTGCAGGTGATTTTGCTCAAGTNNNNNNNNNNNNNNNNNNNNNNNNNNNNNNNNNNNNNNNNAGTATCGCTAATCAGGCGGATC [random ssDNA pool]
Kd: 250 nM
